Assay: soluble on expression in E. coli; label from the status in PepcDB or PDB records

Soluble on expression in E. coli, not soluble:
MGSDKIHHHHHHMQNPQQVSASKTLSPILVQGAMDIEVETLIAALGKVTVNTFGSWTFWEGELSGHPVVVSRTEIGLANAAAATTLAIAHYRPKLIINQGTAGGHDPKLYRGDIVIGETSFNMGSYLTKLTPKGQGIHPTQWQNFDMTMYLRENGEVVKHNHFKADPALVEVALSQAHHYTKGNVVKGIIGTGDEWNRELDRINWLHHTFGTAVEEMETSAAALVAEAYKLPFVSIRILSNTDQHDQDCDPQTAVDCQQFVLNIIQQLINTTK
MGSDKIHHHHHHMQREEWFHRAVIYQVDSSLFYDANGDGFGDLAGIRQKLHYIRSLGATVLWLTPFYLTPLQDDGYDISDHLQPDPRFGTIADVIELIARARELGLRVIVELVIQHTSAQHPWFQAARRDPRSPWRPYYLWADRPPENDDPPMFPGVEESVWRWDEQAGQYYRHMFYHHEPDLNLAHPPVIAEIENIITFWLQAGVSGFRLDAASHLVKQAGKGDETRGYPLLTHLRQVVQRLNPDAILLGEVDVAVEDYRHYFGQGDRLQMVLNFWLNKYLYLSLAQQRAAPVVKALQAMVTPPDGCCFVNWLRNHDELDLEGIGERNKRQVIRTFAPDKSMSVYQRGVRRRLAPMLDGDTRRIALAHAILLALPGVPVMRYGDEIGMGDDLSLPERYAVRTPMQWSAAANAGFSRAARDDLPVKPVASGRFRYQRINVETALRHPRSLLHRVRNMVLARTEYTEPGSLPFTLLTLKPDAVLGLLYRSESREVLMLANCSQQAVEVLLPPLAEGYWSPILEDKLYQDGLHGGKDARLALSGYGYRWFSRSLS
MGSDKIHHHHHHMQRHLVDEFWCINVDSTAWSKVLHRGTRREFKKGEQIVSAGELVTQLRYLESGSVCMKRTTLDGNEKILMHIERSSLFCEVPFFTGDEIHSSFNCHRDAVVYCFSKEVVDDILEMYPCIAKDIIRTLSMKVSVLSNQIASLGLDTLEQRIAKFILLRYNLMNLADADLMTLGTLRMKDVASILGVHRATLYRALKTMEKMRLIKLLNENRLQVLNIEALAALANH
MGSDKIHHHHHHMQSTALRYFLEVARCGSISEASVRLNVASSAVSRQISKLERELDALLFERQARGMMLSEAGIRLAAYARKSQLEAEQVVLEITELQGLQRGHVRIACSEGFALDFLPQCIARFRRLYQGIHFSMEVCAPAQATERVRSGDADLCLTFSLTPQNEIKVEHIHSGAICAVVSHNHPLASRKEVALAELQPYAIALTNTDTTLRQLFDICCGVQGLMFDPVLTSNYIGSLLRFVSEEGGISLSSEMTLDKRVHEKQLKSLPISDEGMKARRIELQSMAGRNLPAAVAAFRDFLIEELAKT
MGSDKIHHHHHHMQTFPAYSSMQLSLSPTQCQPLKIIALGDSLVYGFGDPDKGGWVEQLRRWWMLPDSSGHVLYNLGVRGDRTQQVAQRLEVEFRHRGELRNRVPDLIILSVGVNDSARLTRLNGRNCTDFALFESEIASLLDQAQQLCPVLFVGMVPVDEAKMPFLNCFYFNHADQYRYKEATRIACNQRQIPYLDIFDQWMARGDAWRNKRLTEDGLHPNTLGYQSLLEDVIHWEHLAGYHTRPDYQLK
MGSDKIHHHHHHMQTVQALLTAAKVDSAESPYDTIHIKVLYPAKNTDSNLEKNWGMLPVDAAQAPFPVVIFFNGFNCDAQKYQWLGIELAQTGLVVVMFNWVGESLPGLVSFTPGFEIEKRKREFYGTVPTASALPVILTKLAQLQSAGILSGTLDLEKIILGGHSEGGRVAMENANPNFFPQVVASFAYGSHTAGAVMLGYKPNTILPLPDTLPRLVIGGTHDGVIANSSAHFGLNTKDATTPVIRTFQEAIMGGRENSYLLLLRGANHFSIVDIVDSTLALPFKDIPATQPQEHFRLLLATIIHLFIDAHVRHQPEAFQKLEQLLIVTNPLIQSFERK
MGSDKIHHHHHHMQVGDRIVVRQEEFDTIGHVLSVDPLIVRPHARGGLPSNAEPVRIDNPLMIKRLSPRTVRNADIRAIEVATAKAFPGIEHTWCGQWLLRAGDGVTERSNSAAPLGPQALFTPVPYEEIKEFYRRHNLPALILVPERIAPAIPDDGPEIIVMTHPLDNVSEIDDVHAEFLDQPDDDWLELYHFRGKALPRHALELLRTTIDGRMCFGRLKRDGKTVAITRGTITDGYLGYSAVEVAPEYRRQGLATELGAAMLAWGKAHGAHTAYLQVIESNAAGIGLYHKLGFVEHHRHKYVRVS
MGSDKIHHHHHHMQWLTFQWLEFIREYREKAKHNLSNSGMPEPDLKSLGIDTSYEHYLDAAGEVEYRFTEALSRRLRVDQDLIIPTVGGTEAIFIALSHLSSVSKRIHVPLPEYEPMFLVPESLGIETSKIESKVMPGRISKNESIAMTLPNNPTAQYSDRISLLDNVIHSEGLIYIDETFRDFLPSGTRPTLFDGSETMVVSGTMTKFYGLSNLRTGWIISSEHNVAGMRRIKDLTSINNASFSLYIAAQAIQKWNYFKEAEDNLINKNLRVAREYLEGLPGISYKEPEGAPFIFLSYSKNIESVKLAKLAVERYGILFAPGSFFGEEHHIRVCLTSNKPEEDFNVLKEFLKKEAV
MGSDKIHHHHHHMRAAQYLRMSTEHQTYSIDNQRDAIRDYAEIMGYEIVATYEDAGRSGLNLGGRPGLQRLLADVESGRADFETVVVYDVSRWGRFQNIDESAAYEYRCQMAGVRIEFCAEQFANDGSIESDVLKAIKRSMAAEQSRMLSQKVFIGQARLIRMGFRQGSKVGFGLRRLLVDQHGRPKGILSPSEYKSLQTDRIILVLGPPDEIATVRWIFGHFVKTRKTELEMARLLNKRGVLSDLGRPWTRVSVHSVLTNENYIGNSIWNKHSARLRSHQVRNPPELWVRVENILEPIVDRKLFNRAQIVLKTIYRHLTNDEMLAALKALLARRGALSSFIIDAAPDCPPSTRYMSRFGTIVKAYELIGYEPPKNSRYIFVNRRLETMRLQIIEDLLAAVEKRGGIATHVMETDLLRINQEITVAIATGRCRVSSFGYPRWFAKADREPPPDIFVLIRMNPDDLSIRDYLIAPAHEIAGKSELHAINGARLDTYIFPTLNPLIRLAERASVGSAAWN
MGSDKIHHHHHHMRALLSGYYGKGNGGDEALLATLLQMLPSHVTPVVLSGNPEETSDRYGVESHNRMSLTSVLPALRSCDAFIWGGGSLIQDVTSSISPFYYGGLMALAQKMGLKTVAWAQGIGPLVRPQTRWLAQHNFSGCTTVSVRDRVSAALLADWQIPYILAPDPVWALQAKPFPELANLPTPRIAVTLRNHPQLTAPRLANLTQALVSLQKSTQAFILLLPFQKSEDLAIAQAIQPQLKDVSEIVCIEDPQILKGVFRGVEMAIGMRLHSLIMAASEGCRCFALSYDPKINRLMEDLAIPGWDLANLPDNANVISKTWIDFYTNAQPLASEKITTLVEGAFMHRELLRKALGRIN
MGSDKIHHHHHHMRAPKISEGKINCKEDDNLKLTVLVDNNTILSNNPHFQDRYFLSEPGLSIFIEADGKKVLFDTGHTGIFLQNSEKMNLDLSDLDYLVLSHGHIDHTGGLKSLIDFYQNQGKTNLKDKPTLIAHPECFLSKIDSPWGEIGCGIPEAEITCHFQLQLSREPLWLTENLVFLGEIERSNDFENLTPLGKVHKNTEGQDDYILDDSALVYKGSKGLIIITGCSHAGICNITKYAQKVCRDERVIDIIGGLHLINPGPIQMEKTKEFLKNVAPQTIRACHCTSLRPKIALAESLNMEEVGTGLQLEYY
MGSDKIHHHHHHMRCSPCRMQQAHTPPHSAKSIKHDVKRRIILDAARRMFAHDGAGSVSMRNLAREVGCSAAVLYRYFGSRESILWELRCEGIVLLNDALMGAADAADPLLRLQQLGRAYVSFGIDNLEYYELMFRTPFYEFDAGSLPDGLPDDALVLLHSTAAECLELGYFAGSDVTTVVSSMWSLVHGLVSLILNGRAPLMMGALDTHAMIDRVPDFIAGLARAARGGI
MGSDKIHHHHHHMRFGWLEQPFTTLEQLDSLFEIHSPRKFTFADSFYAHENGRHFIFFEEVDDQHPVGFLSVLEVFKDGTYTPPETILKLDYHLSYPCVFKIDSTWYMIPESSANKTIELWKCTDFPMKWEKHSNLMENIEAVDSTPFYHEGLWYLFTSTRRDCKKFGDRLDLFFTEDILNPNWQEHPMNPACRGSQQFRMAGKPFIYKGQLVRPSQDSLKRYGGNIELKAITQLSPAAYEEKLLEVVLPDWNQADDGCHTINVEDNFVVLDAIRLTPKNN

Reference: the DeepSol protein solubility set
